Biological target: M2pd (modified M2 containing amino acids from Ala-8p to Ala326) (human) (UniProt P56817)
Experiment: cell-based or functional assay

M2pd (modified M2 containing amino acids from Ala-8p to Ala326) (human), sequence (P56817 22-501 limits assumed): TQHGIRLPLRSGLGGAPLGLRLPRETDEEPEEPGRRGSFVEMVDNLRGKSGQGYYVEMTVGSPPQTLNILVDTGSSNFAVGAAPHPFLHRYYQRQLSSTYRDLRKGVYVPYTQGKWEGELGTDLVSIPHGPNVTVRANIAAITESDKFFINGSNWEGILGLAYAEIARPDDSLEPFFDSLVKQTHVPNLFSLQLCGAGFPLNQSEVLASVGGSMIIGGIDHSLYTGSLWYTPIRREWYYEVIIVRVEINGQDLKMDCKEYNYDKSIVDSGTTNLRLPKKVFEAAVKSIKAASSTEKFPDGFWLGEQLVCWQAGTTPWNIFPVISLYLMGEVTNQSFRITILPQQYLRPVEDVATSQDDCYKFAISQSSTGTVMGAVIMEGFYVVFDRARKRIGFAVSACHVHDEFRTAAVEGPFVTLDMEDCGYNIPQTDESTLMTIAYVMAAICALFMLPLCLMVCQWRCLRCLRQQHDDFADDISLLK

IC50 of inhibition of enzyme activity: 300 µM
Substance: Pepstatin A (peptide)
